Assay results from EP1506972A1 (Genentech Inc., dated 2005).
Values belong to the molecule of their own block, whether it stands above or below them.

What was measured:
human IGFBP-1 (human) = biological target: T1, human IGFBP-1 (human) (UniProt P08833); test: BIAcore
T1 sequence (looked up): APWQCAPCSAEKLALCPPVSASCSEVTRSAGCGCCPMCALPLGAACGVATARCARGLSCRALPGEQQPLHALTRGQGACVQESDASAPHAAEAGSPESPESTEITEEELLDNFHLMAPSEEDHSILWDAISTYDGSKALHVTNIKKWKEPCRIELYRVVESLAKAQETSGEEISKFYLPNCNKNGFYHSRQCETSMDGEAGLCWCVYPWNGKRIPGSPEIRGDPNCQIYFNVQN

[1] = biological target: recombinant human IGFBP-3 (human) (UniProt P17936); test: BIAcore
Chain of recombinant human IGFBP-3 (human) (P17936 28-291 limits assumed): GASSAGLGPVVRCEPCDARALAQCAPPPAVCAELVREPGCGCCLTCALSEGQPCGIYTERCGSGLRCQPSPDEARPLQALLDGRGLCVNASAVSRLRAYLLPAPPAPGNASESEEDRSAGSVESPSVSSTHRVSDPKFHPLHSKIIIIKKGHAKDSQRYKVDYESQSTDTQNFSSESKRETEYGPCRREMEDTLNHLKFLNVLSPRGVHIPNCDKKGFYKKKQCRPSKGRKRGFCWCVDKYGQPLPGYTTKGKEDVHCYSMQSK

[2] = biological target: Ala(1-3)-IGF-I, triple alanine mutant of the first three N-terminal amino acids, displayed on phage (human; bacteriophage M13); test: competitive phage ELISA, soluble IGFBP-3 vs coated IGFBP-3
[3] = biological target: IGF-I D20A (G1S-A70V background) displayed on phage (human; bacteriophage M13); test: as above
[4] = biological target: IGF-I F23A (G1S-A70V background) displayed on phage (human; bacteriophage M13); test: as above
[5] = biological target: IGF-I F25A (G1S-A70V background) displayed on phage (human; bacteriophage M13); test: as above
[6] = biological target: IGF-I G19A (G1S-A70V background) displayed on phage (human; bacteriophage M13); test: as above
[7] = biological target: IGF-I G22A (G1S-A70V background) displayed on phage (human; bacteriophage M13); test: as above
[8] = biological target: IGF-I G42A (G1S-A70V background) displayed on phage (human; bacteriophage M13); test: as above
[9] = biological target: IGF-I I43A (G1S-A70V background) displayed on phage (human; bacteriophage M13); test: as above
[10] = biological target: IGF-I N26A (G1S-A70V background) displayed on phage (human; bacteriophage M13); test: as above
[11] = biological target: IGF-I Q40A (G1S-A70V background) displayed on phage (human; bacteriophage M13); test: as above
[12] = biological target: IGF-I R21A (G1S-A70V background) displayed on phage (human; bacteriophage M13); test: as above
[13] = biological target: IGF-I R37A (G1S-A70V background) displayed on phage (human; bacteriophage M13); test: as above
[14] = biological target: IGF-I S34A (G1S-A70V background) displayed on phage (human; bacteriophage M13); test: as above
[15] = biological target: IGF-I S35A (G1S-A70V background) displayed on phage (human; bacteriophage M13); test: as above
[16] = biological target: IGF-I T41A (G1S-A70V background) displayed on phage (human; bacteriophage M13); test: as above
[17] = biological target: IGF-I V44A (G1S-A70V background) displayed on phage (human; bacteriophage M13); test: as above
[18] = biological target: IGF-I Y24A (G1S-A70V background) displayed on phage (human; bacteriophage M13); test: as above
[19] = biological target: T2, IGF-I F49A (G1S-A70V background) displayed on phage (human; bacteriophage M13); test: competitive phage ELISA, soluble IGFBP-1 vs coated IGFBP-1; details: remark: other sources report otherwise
T2 chain: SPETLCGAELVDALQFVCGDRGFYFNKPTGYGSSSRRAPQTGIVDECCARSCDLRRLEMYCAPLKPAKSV

KD(mutant)/KD(IGF-I) (human IGFBP-1 (human)): 25 fold
KD(mutant)/KD(IGF-I) [1]: 6.9 fold
Molecule: F16A IGF-I (soluble, purified) (from UniProt P05019 49-118) (ligand)

IC50 [2]: 1.12 nM
relative IC50 (IC50mut/IC50 G1S-A70V) [2]: 1.5 fold
IC50 [3]: 1.11 nM
relative IC50 (IC50mut/IC50 G1S-A70V) [3]: 1.5 fold
IC50 [4]: 2.18 nM
relative IC50 (IC50mut/IC50 G1S-A70V) [4]: 2.9 fold
IC50 [5]: 3.69 nM
relative IC50 (IC50mut/IC50 G1S-A70V) [5]: 4.9 fold
IC50 [6]: 0.9 nM
relative IC50 (IC50mut/IC50 G1S-A70V) [6]: 1.2 fold
IC50 [7]: 2.07 nM
relative IC50 (IC50mut/IC50 G1S-A70V) [7]: 2.8 fold
IC50 [8]: 0.53 nM
relative IC50 (IC50mut/IC50 G1S-A70V) [8]: 0.7 fold
IC50 [9]: 1.17 nM
relative IC50 (IC50mut/IC50 G1S-A70V) [9]: 1.6 fold
IC50 [10]: 0.9 nM
relative IC50 (IC50mut/IC50 G1S-A70V) [10]: 1.2 fold
IC50 [11]: 0.56 nM
relative IC50 (IC50mut/IC50 G1S-A70V) [11]: 0.7 fold
IC50 [12]: 0.58 nM
relative IC50 (IC50mut/IC50 G1S-A70V) [12]: 0.8 fold
IC50 [13]: 0.75 nM
relative IC50 (IC50mut/IC50 G1S-A70V) [13]: 1 fold
IC50 [14]: 1.65 nM
relative IC50 (IC50mut/IC50 G1S-A70V) [14]: 2.2 fold
IC50 [15]: 0.47 nM
relative IC50 (IC50mut/IC50 G1S-A70V) [15]: 0.6 fold
IC50 [16]: 0.43 nM
relative IC50 (IC50mut/IC50 G1S-A70V) [16]: 0.6 fold
IC50 [17]: 1.03 nM
relative IC50 (IC50mut/IC50 G1S-A70V) [17]: 1.4 fold
IC50 [18]: 2.53 nM
relative IC50 (IC50mut/IC50 G1S-A70V) [18]: 3.4 fold
Molecule: recombinant human IGFBP-3 (from UniProt P17936 28-291)

KD(mutant)/KD(IGF-I) (human IGFBP-1 (human)): 1.1 fold
KD(mutant)/KD(IGF-I) [1]: 0.8 fold
Molecule: R36A IGF-I (soluble, purified) (from UniProt P05019 49-118) (ligand)

KD(mutant)/KD(IGF-I) (human IGFBP-1 (human)): 25 fold
KD(mutant)/KD(IGF-I) [1]: 5.1 fold
Molecule: F25A IGF-I (soluble, purified) (from UniProt P05019 49-118) (ligand)

KD(mutant)/KD(IGF-I) (human IGFBP-1 (human)): 5.1 fold
KD(mutant)/KD(IGF-I) [1]: 4.5 fold
Molecule: V11A IGF-I (soluble, purified) (from UniProt P05019 49-118) (ligand)

KD(mutant)/KD(IGF-I) (human IGFBP-1 (human)): 6.9 fold
KD(mutant)/KD(IGF-I) [1]: 2.1 fold
Molecule: T4A IGF-I (soluble, purified) (from UniProt P05019 49-118) (ligand)

KD(mutant)/KD(IGF-I) (human IGFBP-1 (human)): 1 fold
KD(mutant)/KD(IGF-I) [1]: 1.5 fold
Molecule: P39A IGF-I (soluble, purified) (from UniProt P05019 49-118) (ligand)

KD(mutant)/KD(IGF-I) (human IGFBP-1 (human)): 1.1 fold
KD(mutant)/KD(IGF-I) [1]: 1.5 fold
Molecule: G1S/A70V IGF-I (soluble, purified) (from UniProt P05019 50-117) (ligand)

relative IC50 (IC50mut/IC50 G1S-A70V) [19]: > 100 fold
B1: human IGFBP-1, P08833 26-259 (protein, UniProt P08833 26-259, looked up)
chain: T1 sequence (looked up)
